Target: T1, CD3 epsilon homodimer protein (UniProt P07766 23-126)
T1 construct: also called CD3 (CD3 epsilon)
Assay: SPR, CD3 epsilon homodimer on chip, one-arm antibody as analyte;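 further: surface plasmon resonance at 25 °C with CD3 epsilon homodimer amine-coupled to a CM4 sensor chip, antibody injected as analyte, HBS-EP+ as running buffer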

T1 sequence (P07766 23-126): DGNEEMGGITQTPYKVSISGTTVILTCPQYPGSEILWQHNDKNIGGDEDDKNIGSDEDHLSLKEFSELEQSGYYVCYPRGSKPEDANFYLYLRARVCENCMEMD

KD ratio (KD of CE115HA000/KD of altered form)	Binder
0.73	CE115HA000 D101F (antibody, human IgG1, kappa, L234A L235A, N297A, name in Kabat numbering, one-arm antibody) heavy: QVQLVESGGGVVQPGRSLRLSCAASGFTFSNAWMHWVRQAPGKGLEWVAQIKAKSNNYATYYAESVKGRFTISRDDSKNSLYLQMNSLKTEDTAVYYCRYVHYGAYYGVFAWGQGTTVTVSSASTKGPSVFPLAPSSKSTSGGTAALGCLVKDYFPEPVTVSWNSGALTSGVHTFPAVLQSSGLYSLSSVVTVPSSSLGTQTYICNVNHKPSNTKVDKKVEPKSCDKTHTCPPCPAPEAAGGPSVFLFPPKPKDTLMISRTPEVTCVVVDVSHEDPEVKFNWYVDGVEVHNAKTKPREEQYASTYRVVSVLTVLHQDWLNGKEYKCKVSNKALPAPIEKTISKAKGQPREPQVYTLPPSRCELTKNQVSLSCAVKGFYPSDIAVEWESNGQPENNYKTTPPVLDSDGSFFLVSKLTVDKSRWQQGNVFSCSVMHEALHNHYTQKSLSLSPDYKDDDDK EPKSSDKTHTCPPCPAPELLGGPSVFLFPPKPKDTLMISRTPEVTCVVVDVSHEDPEVKFNWYVDGVEVHNAKTKPREEQYNSTYRVVSVLTVLHQDWLNGKEYKCKVSNKALPAPIEKTISKAKGQPREPQVCTLPPSRDELTKNQVSLWCLVKGFYPSDIAVEWESNGQPENNYKTTPPVLDSDGSFFLYSKLTVDKSRWQQGNVFSCSVMHEALHNRYTQKSLSLSP light: DIVMTQSPLSLPVTPGEPASISCRSSQSLVHSNRNTYLHWYQQKPGQAPRLLIYKVSNRFSGVPDRFSGSGSGTDFTLKISRVEAEDVGVYYCGQGTQVPYTFGQGTKLEIKRTVAAPSVFIFPPSDEQLKSGTASVVCLLNNFYPREAKVQWKVDNALQSGNSQESVTEQDSKDSTYSLSSTLTLSKADYEKHKVYACEVTHQGLSSPVTKSFNRGEC
4.37	CE115HA000 D101K (antibody, human IgG1, kappa, L234A L235A, N297A, name in Kabat numbering, one-arm antibody) heavy: QVQLVESGGGVVQPGRSLRLSCAASGFTFSNAWMHWVRQAPGKGLEWVAQIKAKSNNYATYYAESVKGRFTISRDDSKNSLYLQMNSLKTEDTAVYYCRYVHYGAYYGVKAWGQGTTVTVSSASTKGPSVFPLAPSSKSTSGGTAALGCLVKDYFPEPVTVSWNSGALTSGVHTFPAVLQSSGLYSLSSVVTVPSSSLGTQTYICNVNHKPSNTKVDKKVEPKSCDKTHTCPPCPAPEAAGGPSVFLFPPKPKDTLMISRTPEVTCVVVDVSHEDPEVKFNWYVDGVEVHNAKTKPREEQYASTYRVVSVLTVLHQDWLNGKEYKCKVSNKALPAPIEKTISKAKGQPREPQVYTLPPSRCELTKNQVSLSCAVKGFYPSDIAVEWESNGQPENNYKTTPPVLDSDGSFFLVSKLTVDKSRWQQGNVFSCSVMHEALHNHYTQKSLSLSPDYKDDDDK EPKSSDKTHTCPPCPAPELLGGPSVFLFPPKPKDTLMISRTPEVTCVVVDVSHEDPEVKFNWYVDGVEVHNAKTKPREEQYNSTYRVVSVLTVLHQDWLNGKEYKCKVSNKALPAPIEKTISKAKGQPREPQVCTLPPSRDELTKNQVSLWCLVKGFYPSDIAVEWESNGQPENNYKTTPPVLDSDGSFFLYSKLTVDKSRWQQGNVFSCSVMHEALHNRYTQKSLSLSP light: DIVMTQSPLSLPVTPGEPASISCRSSQSLVHSNRNTYLHWYQQKPGQAPRLLIYKVSNRFSGVPDRFSGSGSGTDFTLKISRVEAEDVGVYYCGQGTQVPYTFGQGTKLEIKRTVAAPSVFIFPPSDEQLKSGTASVVCLLNNFYPREAKVQWKVDNALQSGNSQESVTEQDSKDSTYSLSSTLTLSKADYEKHKVYACEVTHQGLSSPVTKSFNRGEC
0.71	CE115HA000 D101L (antibody, human IgG1, kappa, L234A L235A, N297A, name in Kabat numbering, one-arm antibody) heavy: QVQLVESGGGVVQPGRSLRLSCAASGFTFSNAWMHWVRQAPGKGLEWVAQIKAKSNNYATYYAESVKGRFTISRDDSKNSLYLQMNSLKTEDTAVYYCRYVHYGAYYGVLAWGQGTTVTVSSASTKGPSVFPLAPSSKSTSGGTAALGCLVKDYFPEPVTVSWNSGALTSGVHTFPAVLQSSGLYSLSSVVTVPSSSLGTQTYICNVNHKPSNTKVDKKVEPKSCDKTHTCPPCPAPEAAGGPSVFLFPPKPKDTLMISRTPEVTCVVVDVSHEDPEVKFNWYVDGVEVHNAKTKPREEQYASTYRVVSVLTVLHQDWLNGKEYKCKVSNKALPAPIEKTISKAKGQPREPQVYTLPPSRCELTKNQVSLSCAVKGFYPSDIAVEWESNGQPENNYKTTPPVLDSDGSFFLVSKLTVDKSRWQQGNVFSCSVMHEALHNHYTQKSLSLSPDYKDDDDK EPKSSDKTHTCPPCPAPELLGGPSVFLFPPKPKDTLMISRTPEVTCVVVDVSHEDPEVKFNWYVDGVEVHNAKTKPREEQYNSTYRVVSVLTVLHQDWLNGKEYKCKVSNKALPAPIEKTISKAKGQPREPQVCTLPPSRDELTKNQVSLWCLVKGFYPSDIAVEWESNGQPENNYKTTPPVLDSDGSFFLYSKLTVDKSRWQQGNVFSCSVMHEALHNRYTQKSLSLSP light: DIVMTQSPLSLPVTPGEPASISCRSSQSLVHSNRNTYLHWYQQKPGQAPRLLIYKVSNRFSGVPDRFSGSGSGTDFTLKISRVEAEDVGVYYCGQGTQVPYTFGQGTKLEIKRTVAAPSVFIFPPSDEQLKSGTASVVCLLNNFYPREAKVQWKVDNALQSGNSQESVTEQDSKDSTYSLSSTLTLSKADYEKHKVYACEVTHQGLSSPVTKSFNRGEC
1.73	CE115HA000 D101I (antibody, human IgG1, kappa, L234A L235A, N297A, name in Kabat numbering, one-arm antibody) heavy: QVQLVESGGGVVQPGRSLRLSCAASGFTFSNAWMHWVRQAPGKGLEWVAQIKAKSNNYATYYAESVKGRFTISRDDSKNSLYLQMNSLKTEDTAVYYCRYVHYGAYYGVIAWGQGTTVTVSSASTKGPSVFPLAPSSKSTSGGTAALGCLVKDYFPEPVTVSWNSGALTSGVHTFPAVLQSSGLYSLSSVVTVPSSSLGTQTYICNVNHKPSNTKVDKKVEPKSCDKTHTCPPCPAPEAAGGPSVFLFPPKPKDTLMISRTPEVTCVVVDVSHEDPEVKFNWYVDGVEVHNAKTKPREEQYASTYRVVSVLTVLHQDWLNGKEYKCKVSNKALPAPIEKTISKAKGQPREPQVYTLPPSRCELTKNQVSLSCAVKGFYPSDIAVEWESNGQPENNYKTTPPVLDSDGSFFLVSKLTVDKSRWQQGNVFSCSVMHEALHNHYTQKSLSLSPDYKDDDDK EPKSSDKTHTCPPCPAPELLGGPSVFLFPPKPKDTLMISRTPEVTCVVVDVSHEDPEVKFNWYVDGVEVHNAKTKPREEQYNSTYRVVSVLTVLHQDWLNGKEYKCKVSNKALPAPIEKTISKAKGQPREPQVCTLPPSRDELTKNQVSLWCLVKGFYPSDIAVEWESNGQPENNYKTTPPVLDSDGSFFLYSKLTVDKSRWQQGNVFSCSVMHEALHNRYTQKSLSLSP light: DIVMTQSPLSLPVTPGEPASISCRSSQSLVHSNRNTYLHWYQQKPGQAPRLLIYKVSNRFSGVPDRFSGSGSGTDFTLKISRVEAEDVGVYYCGQGTQVPYTFGQGTKLEIKRTVAAPSVFIFPPSDEQLKSGTASVVCLLNNFYPREAKVQWKVDNALQSGNSQESVTEQDSKDSTYSLSSTLTLSKADYEKHKVYACEVTHQGLSSPVTKSFNRGEC
0.91	CE115HA000 D101H (antibody, human IgG1, kappa, L234A L235A, N297A, name in Kabat numbering, one-arm antibody) heavy: QVQLVESGGGVVQPGRSLRLSCAASGFTFSNAWMHWVRQAPGKGLEWVAQIKAKSNNYATYYAESVKGRFTISRDDSKNSLYLQMNSLKTEDTAVYYCRYVHYGAYYGVHAWGQGTTVTVSSASTKGPSVFPLAPSSKSTSGGTAALGCLVKDYFPEPVTVSWNSGALTSGVHTFPAVLQSSGLYSLSSVVTVPSSSLGTQTYICNVNHKPSNTKVDKKVEPKSCDKTHTCPPCPAPEAAGGPSVFLFPPKPKDTLMISRTPEVTCVVVDVSHEDPEVKFNWYVDGVEVHNAKTKPREEQYASTYRVVSVLTVLHQDWLNGKEYKCKVSNKALPAPIEKTISKAKGQPREPQVYTLPPSRCELTKNQVSLSCAVKGFYPSDIAVEWESNGQPENNYKTTPPVLDSDGSFFLVSKLTVDKSRWQQGNVFSCSVMHEALHNHYTQKSLSLSPDYKDDDDK EPKSSDKTHTCPPCPAPELLGGPSVFLFPPKPKDTLMISRTPEVTCVVVDVSHEDPEVKFNWYVDGVEVHNAKTKPREEQYNSTYRVVSVLTVLHQDWLNGKEYKCKVSNKALPAPIEKTISKAKGQPREPQVCTLPPSRDELTKNQVSLWCLVKGFYPSDIAVEWESNGQPENNYKTTPPVLDSDGSFFLYSKLTVDKSRWQQGNVFSCSVMHEALHNRYTQKSLSLSP light: DIVMTQSPLSLPVTPGEPASISCRSSQSLVHSNRNTYLHWYQQKPGQAPRLLIYKVSNRFSGVPDRFSGSGSGTDFTLKISRVEAEDVGVYYCGQGTQVPYTFGQGTKLEIKRTVAAPSVFIFPPSDEQLKSGTASVVCLLNNFYPREAKVQWKVDNALQSGNSQESVTEQDSKDSTYSLSSTLTLSKADYEKHKVYACEVTHQGLSSPVTKSFNRGEC
3.16	CE115HA000 D101G (antibody, human IgG1, kappa, L234A L235A, N297A, name in Kabat numbering, one-arm antibody) heavy: QVQLVESGGGVVQPGRSLRLSCAASGFTFSNAWMHWVRQAPGKGLEWVAQIKAKSNNYATYYAESVKGRFTISRDDSKNSLYLQMNSLKTEDTAVYYCRYVHYGAYYGVGAWGQGTTVTVSSASTKGPSVFPLAPSSKSTSGGTAALGCLVKDYFPEPVTVSWNSGALTSGVHTFPAVLQSSGLYSLSSVVTVPSSSLGTQTYICNVNHKPSNTKVDKKVEPKSCDKTHTCPPCPAPEAAGGPSVFLFPPKPKDTLMISRTPEVTCVVVDVSHEDPEVKFNWYVDGVEVHNAKTKPREEQYASTYRVVSVLTVLHQDWLNGKEYKCKVSNKALPAPIEKTISKAKGQPREPQVYTLPPSRCELTKNQVSLSCAVKGFYPSDIAVEWESNGQPENNYKTTPPVLDSDGSFFLVSKLTVDKSRWQQGNVFSCSVMHEALHNHYTQKSLSLSPDYKDDDDK EPKSSDKTHTCPPCPAPELLGGPSVFLFPPKPKDTLMISRTPEVTCVVVDVSHEDPEVKFNWYVDGVEVHNAKTKPREEQYNSTYRVVSVLTVLHQDWLNGKEYKCKVSNKALPAPIEKTISKAKGQPREPQVCTLPPSRDELTKNQVSLWCLVKGFYPSDIAVEWESNGQPENNYKTTPPVLDSDGSFFLYSKLTVDKSRWQQGNVFSCSVMHEALHNRYTQKSLSLSP light: DIVMTQSPLSLPVTPGEPASISCRSSQSLVHSNRNTYLHWYQQKPGQAPRLLIYKVSNRFSGVPDRFSGSGSGTDFTLKISRVEAEDVGVYYCGQGTQVPYTFGQGTKLEIKRTVAAPSVFIFPPSDEQLKSGTASVVCLLNNFYPREAKVQWKVDNALQSGNSQESVTEQDSKDSTYSLSSTLTLSKADYEKHKVYACEVTHQGLSSPVTKSFNRGEC

Reference: US20210388087A1 (Chugai, published 2021)
